Measurements as given in paper doi:10.1101/2025.06.20.660733.

Experiments:
[1] = target: neuraminidase of A/cattle/Texas/56283/2024 (H5N1), recombinant head domain (influenza A virus A/cattle/Texas/56283/2024 (H5N1))
[2] = target: neuraminidase of A/Moscow/10/1999 (H3N2), recombinant head domain (influenza A virus A/Moscow/10/1999 (H3N2))

B1: HB420 (human IgG1) (antibody, V domains shown)
VH: EVQLVESGAEVKKPGSSVKVSCMASGGSFGSYGFSWVRQAPGQGLEWMGGIIPLFDTPNYAQKFQGRVTITADASTSTVYMELSSLRSEDTAVYYCARDSLPYGDQNYYYGMHVWGQGTTVTVSS
VL: QSALTQPASLSGSPGQSITISCSGSSSDIGDYNYVSWYQQHPGKAPKLIIYDVTNRPSGVSDRLSGSKSGTTASLTISGLQAEDEADYYCSSYGGNYNLVFGGGTKLTVL
In the case of B1, the NA inhibition of recombinant NA by enzyme-linked lectin assay (ELLA), IC50 [1] is reported as 50 µg/mL and the NA inhibition of recombinant NA by enzyme-linked lectin assay (ELLA), IC50 [2] is reported as 0.19 µg/mL.
